Reference: paper PMC7608592, “Allomorphy as a mechanism of post-translational control of enzyme activity” (Nature Communications, 2020)

Experiments:
[1] = target: T1, β-phosphoglucomutase (βPGM) (Lactococcus lactis, UniProt P71447); test: X-ray crystal structure at […] Å; NMR titration (1H15N-TROSY); assay type: binding
T1 construct: gene pgmB

[2] = system: O=P(O)(O)OC[C@H]1O[C@@H](OP(=O)(O)O)[C@H](O)[C@@H](O)[C@@H]1O; test: purified protein; conditions: Mg2+ active site
[3] = system: O=P(O)(O)O[C@@H]1O[C@H](CO)[C@@H](O)[C@H](O)[C@H]1O; test: purified protein; conditions: Mg2+ active site
[4] = target: T2, β-phosphoglucomutase (βPGM) (Lactococcus lactis, UniProt P71447, P146A); test: NMR: phosphorylation of the purified enzyme (B^P formed) and turnover of F16BP; assay type: biochemical
T2 construct: gene pgmB

[5] = target: T1, β-phosphoglucomutase (βPGM); test: real-time NMR (A:F16BP complex observed); phosphorylating agent in coupled assay; assay type: binding

Molecule	X-ray crystal structure at 2.1 Å; NMR titration (1H15N-TROSY) [1]	Km [2] [µM]	Km [3] [µM]	NMR: phosphorylation of the purified enzyme (B^P formed) and turnover of F16BP [4]	real-time NMR (A:F16BP complex observed); phosphorylating agent in coupled assay [5]
O=C(O)CC(O)(CC(=O)O)C(=O)O [citrate]	Citrate is coordinated in the active site by residues T16, H20, V47–R49 and A115–K117 and mimics substrate binding				
β-phosphoglucomutase (βPGM) (Lactococcus lactis subsp. lactis Il1403; P146A)		175 ± 3	157 ± 3		
O=P(O)(O)OC[C@H]1OC(O)(COP(=O)(O)O)[C@@H](O)[C@@H]1O (mixture of isomers) [F16BP, fructose 1,6-bisphosphate]				On addition of F16BP to βPGMP146A, the two dominant species observed are conformer B and B^P	A minor population of the A:F16BP complex is also present
β-phosphoglucomutase (βPGM) (Lactococcus lactis subsp. lactis Il1403)		8.5 ± 0.3	91 ± 4		
